These results are taken from patent US20220017589A1 (BEIJING QL BIOPHARMACEUTICAL, published 2022).

B1: MLC005 (ligand)
chain: HGEGTFTSDVSSYLEEQAAREFIAWLVRGGGGQEPGQEPGQEKGQEPGQEPGQEPGQEPGQEPGAQPGAQPARQGDHCPLGPGRCCRLHTVRASLEDLGWADWVLSPREVQVTMCIGACPSQFRAANLHAQIKTSLHRLRPDTVPAPCCVPASYNPMVLIQRTDTGVSLQTYDDLLARDCHCI
modifications: Moiety A (HOOC-(CH2)16-CO-gGlu-2XADO) on 12K of Linker (43K of fusion polypeptide)
B2: MLC013 (ligand)
chain: HGEGTFTSDVSSYLEEQAAREFIAWLVRGGGKQEPGAQPGQEPGAQPGQEPGAQPGQEPGAQPGQEPGAQPGQEPGAQPGAQPGAQPGAQPGAQPGAQPGAQPGAQPGAQPARQGDHCPLGPGRCCRLHTVRASLEDLGWADWVLSPREVQVTMCIGACPSQFRAANLHAQIKTSLHRLRPDTVPAPCCVPASYNPMVLIQRTDTGVSLQTYDDLLARDCHCI
modifications: Moiety A (HOOC-(CH2)16-CO-gGlu-2XADO) on 1K of Linker (32K of fusion polypeptide)
B3: MLC064 (ligand)
chain: B2 chain with K32G, Q82K
modifications: Moiety A (HOOC-(CH2)16-CO-gGlu-2XADO) on 51K of Linker (82K of fusion polypeptide)
B4: MLC016 (ligand)
chain: B2 chain with K32G, P83K
modifications: Moiety A (HOOC-(CH2)16-CO-gGlu-2XADO) on 52K of Linker (83K of fusion polypeptide)
B5: MLC075 (ligand)
chain: B2 chain with R20K, K32G, G72C, R180K, R202K, R218K
modifications: Moiety C (HOOC-(CH2)20-CO-gGlu-2XADO-EDA-CO-CH2) on 41C of Linker (72C of fusion polypeptide)
B6: MLC047 (ligand)
chain: B2 chain with K32G, P71K
modifications: Moiety A (HOOC-(CH2)16-CO-gGlu-2XADO) on 40K of linker (71K of fusion polypeptide) per Table 2; Table 3 prints 41K of linker
B7: MLC018 (ligand)
chain: B2 chain with K32G, A81Q, Q82E, P83K, A89Q, Q90E, A97Q, Q98E, A105Q, Q106E
modifications: Moiety A (HOOC-(CH2)16-CO-gGlu-2XADO) on 52K of Linker (83K of fusion polypeptide)
B8: MLC081 (ligand)
chain: B2 chain with R20K, K32G, E66C, A81Q, Q82E, R180K, R202K, R218K
modifications: Moiety C (HOOC-(CH2)20-CO-gGlu-2XADO-EDA-CO-CH2) on 35C of Linker (66C of fusion polypeptide)
B9: MLC083 (ligand)
chain: B2 chain with R20K, K32G, A69Q, Q70C, R180K, R202K, R218K
modifications: Moiety B (HOOC-(CH2)16-CO-gGlu-2XADO-EDA-CO-CH2) on 39C of Linker (70C of fusion polypeptide)
B10: MLC046 (ligand)
chain: B2 chain with K32G, P91K
modifications: Moiety A (HOOC-(CH2)16-CO-gGlu-2XADO) on 60K of linker (91K of fusion polypeptide)
B11: MLC086 (ligand)
chain: B2 chain with R20K, K32G, G68C, A69Q, Q70A, R180K, R202K, R218K
modifications: Moiety C (HOOC-(CH2)20-CO-gGlu-2XADO-EDA-CO-CH2) on 37C of Linker (68C of fusion polypeptide)
B12: MLC017 (ligand)
chain: B2 chain with K32G, Q86K
modifications: Moiety A (HOOC-(CH2)16-CO-gGlu-2XADO) on 55K of Linker (86K of fusion polypeptide)
B13: MLC085 (ligand)
chain: B2 chain with R20K, K32G, G68C, A69Q, Q70A, R180K, R202K, R218K
modifications: Moiety B (HOOC-(CH2)16-CO-gGlu-2XADO-EDA-CO-CH2) on 37C of Linker (68C of fusion polypeptide)
B14: MLC104 (ligand)
chain: B2 chain with K32G, P107K
modifications: Moiety A (HOOC-(CH2)16-CO-gGlu-2XADO) on 76K of Linker (107K of fusion polypeptide)
B15: MLC045 (ligand)
chain: B2 chain with Q86K
modifications: Moiety A (HOOC-(CH2)16-CO-gGlu-2XADO) on 1K and 55K of Linker (32K and 86K of fusion polypeptide)
B16: MLC080 (ligand)
chain: B2 chain with R20K, K32G, E66C, A81Q, Q82E, R180K, R202K, R218K
modifications: Moiety B (HOOC-(CH2)16-CO-gGlu-2XADO-EDA-CO-CH2) on 35C of Linker (66C of fusion polypeptide)
B17: MLC103 (ligand)
chain: B2 chain with K32G, Q102K
modifications: Moiety A (HOOC-(CH2)16-CO-gGlu-2XADO) on 71K of Linker (102K of fusion polypeptide)
B18: MLC004 (ligand)
chain: B2 chain with R20K, K32G
modifications: Moiety A (HOOC-(CH2)16-CO-gGlu-2XADO) on 26K of GLP-1 (20K of fusion polypeptide)
B19: MLC074 (ligand)
chain: B2 chain with R20K, K32G, G72C, R180K, R202K, R218K
modifications: Moiety B (HOOC-(CH2)16-CO-gGlu-2XADO-EDA-CO-CH2) on 41C of Linker (72C of fusion polypeptide)
B20: MLC084 (ligand)
chain: B2 chain with R20K, K32G, A69Q, Q70C, R180K, R202K, R218K
modifications: Moiety C (HOOC-(CH2)20-CO-gGlu-2XADO-EDA-CO-CH2) on 39C of Linker (70C of fusion polypeptide)
B21: MLC030 (ligand)
chain: HGEGTFTSDVSSYLEEQAAREFIAWLVRGGGGQEPGQEPGQEPGQKPGQEPGQEPGQEPGQEPGAQPGAQPGAQPGAQPGAQPGAQPGAQPGAQPGAQPGAQPGAQPGAQPARQGDHCPLGPGRCCRLHTVRASLEDLGWADWVLSPREVQVTMCIGACPSQFRAANLHAQIKTSLHRLRPDTVPAPCCVPASYNPMVLIQRTDTGVSLQTYDDLLARDCHCI
modifications: Moiety A (HOOC-(CH2)16-CO-gGlu-2XADO) on 15K of Linker (46K of fusion polypeptide)
B22: MLC091 (ligand)
chain: HGEGTFTSDVSSYLEEQAAKEFIAWLVRGGGGAQPGAQPGAQPGAQPGAQPGAQPGAQPGAQPGQCPGAQPGQEPGAQPGQEPGAQPGQEPGAQPGQEPGAQPGQEPGAQPARQGDHCPLGPGRCCRLHTVRASLEDLGWADWVLSPREVQVTMCIGACPSQFRAANLHAQIKTSLHRLKPDTVPAPCCVPASYNPMVLIQKTDTGVSLQTYDDLLAKDCHCI
modifications: Moiety B (HOOC-(CH2)16-CO-gGlu-2XADO-EDA-CO-CH2) on 35C of Linker (66C of fusion polypeptide)
B23: MLC090 (ligand)
chain: B22 chain with C66E, A69Q, Q70C
modifications: Moiety C (HOOC-(CH2)20-CO-gGlu-2XADO-EDA-CO-CH2) on 39C of Linker (70C of fusion polypeptide)
B24: MLC092 (ligand)
chain: B22 chain
modifications: Moiety C (HOOC-(CH2)20-CO-gGlu-2XADO-EDA-CO-CH2) on 35C of Linker (66C of fusion polypeptide)
B25: MLC088 (ligand)
chain: B22 chain with C66E, G72C
modifications: Moiety C (HOOC-(CH2)20-CO-gGlu-2XADO-EDA-CO-CH2) on 41C of Linker (72C of fusion polypeptide)
B26: Native GDF15 (ligand)
chain: ARNGDHCPLGPGRCCRLHTVRASLEDLGWADWVLSPREVQVTMCIGACPSQFRAANMHAQIKTSLHRLKPDTVPAPCCVPASYNPMVLIQKTDTGVSLQTYDDLLAKDCHCI
B27: MLC127 (ligand)
chain: B22 chain with K20C, C66E
modifications: Moiety B (HOOC-(CH2)16-CO-gGlu-2XADO-EDA-CO-CH2) on 26C of GLP-1 (20C of fusion polypeptide)

Residue numbers refer to the chain shown, from its start.

The target in the first assay is T1, human GFRAL (human, UniProt Q6UXV0 19-394).
T1 sequence (looked up): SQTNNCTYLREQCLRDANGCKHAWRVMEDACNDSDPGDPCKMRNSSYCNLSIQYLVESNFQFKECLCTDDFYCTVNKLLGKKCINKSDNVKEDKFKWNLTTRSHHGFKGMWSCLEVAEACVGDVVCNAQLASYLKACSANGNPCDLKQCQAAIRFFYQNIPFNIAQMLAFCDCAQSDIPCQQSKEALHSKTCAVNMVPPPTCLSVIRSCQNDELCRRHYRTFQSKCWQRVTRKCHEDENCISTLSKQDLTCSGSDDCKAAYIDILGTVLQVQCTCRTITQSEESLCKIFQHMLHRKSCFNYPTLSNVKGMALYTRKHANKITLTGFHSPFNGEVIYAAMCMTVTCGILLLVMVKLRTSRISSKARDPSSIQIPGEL
As to the kind of experiment: cell-based or functional assay.
Regarding B1, the “GDF15 activity (EC50, pM)” value worked out at 20.3 pM.
Turning to B2, the “GDF15 activity (EC50, pM)” value was found to be 48.8 pM.
The same measure, in the same setting: as for B3, the figure is 116 pM.
As to B4, the “GDF15 activity (EC50, pM)” value turned out to be 110 pM.
Still for that read-out and setting: as for B5, the figure is 48.6 pM.
In the case of B6, the “GDF15 activity (EC50, pM)” value came out at 59.4 pM.
Same read-out and setting: as for B7, the figure is 75.5 pM; as for B8, 69.8 pM.
Still for that read-out and setting: under B9 stands 52.4 pM; under B10, 78.9 pM; under B11, 32.4 pM.
The same measure, in the same setting: under B12 stands 77.6 pM; under B13, 22 pM.
Regarding B14, the “GDF15 activity (EC50, pM)” value was 79.4 pM.
On the same count and under the same terms, under B15 stands 114 pM; under B16, 86.8 pM.
The same measure, in the same setting: as for B17, the figure is 79.2 pM.
B18: the “GDF15 activity (EC50, pM)” value worked out at 17.3 pM.
For B19, the “GDF15 activity (EC50, pM)” value is 41.1 pM.
In the case of B20, the “GDF15 activity (EC50, pM)” value was determined as 70.5 pM.
Same read-out and setting: as for B21, the figure is 52.3 pM; as for B22, 34.9 pM.
The same measure, in the same setting: as for B23, the figure is 23.6 pM; as for B24, 48.6 pM.
Still for that read-out and setting: as for B25, the figure is 30.2 pM; as for B26, 8.1 pM.

A further assay has as its target T2, human GLP-1 receptor (human, UniProt P43220 24-463). Nature of the assay: cell-based or functional assay.
As for B1, the “GLP-1 activity (EC50, pM)” value was 3 pM.
On the same count and under the same terms, under B2 stands 6.9 pM; under B3, 1.3 pM.
The same measure, in the same setting: under B4 stands 2.5 pM; under B5, 1.3 pM.
Take B6: the “GLP-1 activity (EC50, pM)” value worked out at 1 pM.
Same read-out and setting: under B7 stands 3.3 pM; under B8, 1.2 pM.
The same measure, in the same setting: as for B9, the figure is 1.7 pM; as for B10, 1 pM.
On the same count and under the same terms, under B11 stands 1.1 pM.
B12: the “GLP-1 activity (EC50, pM)” value was determined as 2.8 pM.
The same measure, in the same setting: under B13 stands 1.5 pM; under B14, 0.88 pM; under B15, 1.2 pM.
Take B16: the “GLP-1 activity (EC50, pM)” value was 1.6 pM.
Same read-out and setting: under B17 stands 0.89 pM; under B18, 8.3 pM; under B19, 0.94 pM.
On the same count and under the same terms, as for B20, the figure is 1.3 pM.
On the same count and under the same terms, under B21 stands 0.9 pM; under B22, 2 pM.
As for B23, the “GLP-1 activity (EC50, pM)” value came out at 1.5 pM.
Still for that read-out and setting: under B24 stands 2.2 pM; under B25, 1.6 pM.

The next assay deals with T1, human GFRAL. Nature of the assay: cell-based or functional assay. The source holds these as a separate data set.
Take B27: the “GDF15 activity (EC50, pM, 1% HSA)” value is 72.8 pM.
The same measure, in the same setting: under B26 stands 11.3 pM.

In a further assay the target is T2, human GLP-1 receptor. As to the kind of experiment: cell-based or functional assay. The source holds these as a separate data set.
As to B27, the “GLP-1 activity (EC50, pM, 1% HSA)” value was determined as 872 pM.
